Here are results for 3 proteins from paper PMC5327651 (Virology, 2016).

Numbering of substitutions follows the chain as printed.

Data set [1] deals with the molecule itself. Put plainly: cross-linking.
Data set [2] deals with the molecule itself. Kind of data set: FRET or BRET. Background: BRET reads energy transfer from a luciferase to a nearby fluorophore.

B1: WT rhTRIM5α CC-L2 peptide (residues 132-296) with an added C-terminal cysteine, fluorescently labelled (domain or fragment, rhesus macaque)
chain: LMEEVAQEYHVKLQTALEMLRQKQQEAEKLEADIREEKASWKIQIDYDKTNVSADFEQLREILDWEESNELQNLEKEEEDILKSLTKSETEMVQQTQYMRELISELEHRLQGSMMDLLQGVDGIIKRIENMTLKKPKTFHKNQRRVFRAPDLKGMLDMFRELTDAC
modifications: Alexa Fluor 488 C5-maleimide or Alexa Fluor 594 C5-maleimide on the added C-terminal cysteine
As usually defined, the stoichiometry N is a count of units in the complex or per binding partner. Consider B1, for which the “stoichiometry N” value in data set [1] was 2.

B2: RRV275-277AAA rhTRIM5α CC-L2 peptide (residues 132-296) with an added C-terminal cysteine, fluorescently labelled (domain or fragment, rhesus macaque)
chain: B1 chain with R144A, R145A, V146A
modifications: Alexa Fluor 488 C5-maleimide or Alexa Fluor 594 C5-maleimide on the added C-terminal cysteine
B2: the binding result in data set [2] was “binds”.

B3: HKN271-273AAA rhTRIM5α CC-L2 peptide (residues 132-296) with an added C-terminal cysteine, fluorescently labelled (domain or fragment, rhesus macaque)
chain: B1 chain with H140A, K141A, N142A
modifications: Alexa Fluor 488 C5-maleimide or Alexa Fluor 594 C5-maleimide on the added C-terminal cysteine
Take B3: the binding result in data set [2] is “binds”.
